According to patent publication US20150346192A1 (Sanofi, published 2015):

How the values were obtained:
rCG30986, isoform CRA_a = target: T1, rCG30986, isoform CRA_a (rat); test: IP of RBL-2H3 lysate on nickel beads, MS/MS ProtScore
T1 construct: Endogenous protein from RBL-2H3 (rat) lysate
Method: (§1) They were used to immunoprecipitate protein lysates from RBL-2H3 cells stimulated or not beforehand via the FcεRI. After the immunoprecipitations, the beads were washed in low stringency conditions in order to preserve low affinity bindings.
(§2) After digestion with trypsin, the bands were analysed by mass spectrometry MS/MS using the MALDI-TOF (matrix-assisted laser desorption/ionization time of flight) technique.
(§3) The Mass spectrometer which was used is composed of a laser which ionises previously digested peptides; an analyser which measures the mass/charge (m/z) ratios of the ionised peptides as a function of their flight time; and a detector which records the number of ions for each given m/z ratio. The obtained spectra of m/z ratios allow the identification of peptides and thus proteins present in the samples, by interrogating the Genebank rat database, as well as the mouse database for comparison (the mice Genebank data being more complete). A confidence index or ProtScore is attributed for each protein as a function of the number of identified peptides which are part of its sequence and of the nature of these peptides (composition, size). A ProtScore higher than 3 corresponds to 0.1% probability of identifying a false positive, in other words the probability that this protein is present is 99.9%.

CTP synthase = target: T2, CTP synthase (rat); test: as above
T2 construct: Endogenous protein from RBL-2H3 (rat) lysate
Method: as §1, §2, §3

[1] = target: T3, metastasis associated 1 family, member 2 (rat); test: as above
T3 construct: Endogenous protein from RBL-2H3 (rat) lysate
Method: as §1, §2, §3

[2] = target: T4, fragile X mental retardation 1 (rat); test: as above
T4 construct: Endogenous protein from RBL-2H3 (rat) lysate
Method: as §1, §2, §3

[3] = target: T5, CCCH-type zinc finger antiviral protein (rat); test: as above
T5 sequence (Q8K3Y6 2-776, looked up): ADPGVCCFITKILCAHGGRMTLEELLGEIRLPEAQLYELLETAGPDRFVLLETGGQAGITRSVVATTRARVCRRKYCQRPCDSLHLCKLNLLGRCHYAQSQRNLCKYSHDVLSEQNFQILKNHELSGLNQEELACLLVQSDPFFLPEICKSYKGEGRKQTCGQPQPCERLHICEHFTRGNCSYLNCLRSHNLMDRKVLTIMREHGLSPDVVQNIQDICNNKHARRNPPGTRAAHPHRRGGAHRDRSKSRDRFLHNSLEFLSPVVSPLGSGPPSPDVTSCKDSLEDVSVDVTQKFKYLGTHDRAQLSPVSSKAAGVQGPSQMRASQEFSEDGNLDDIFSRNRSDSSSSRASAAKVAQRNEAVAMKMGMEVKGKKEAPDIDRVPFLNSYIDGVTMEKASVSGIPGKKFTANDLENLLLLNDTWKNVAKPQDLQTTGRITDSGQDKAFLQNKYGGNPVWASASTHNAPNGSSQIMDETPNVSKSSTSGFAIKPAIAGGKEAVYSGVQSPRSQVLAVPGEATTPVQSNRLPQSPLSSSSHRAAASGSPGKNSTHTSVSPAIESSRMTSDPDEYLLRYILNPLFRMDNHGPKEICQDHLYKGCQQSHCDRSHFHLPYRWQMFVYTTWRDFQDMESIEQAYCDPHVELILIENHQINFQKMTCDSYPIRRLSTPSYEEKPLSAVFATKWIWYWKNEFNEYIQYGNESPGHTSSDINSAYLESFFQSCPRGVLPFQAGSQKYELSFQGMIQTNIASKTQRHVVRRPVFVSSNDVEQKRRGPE
Method: as §1, §2, §3

[4] = target: T6, ATP-binding cassette sub-family F member 1 (rat, UniProt Q6MG08 1-839); test: as above
T6 construct: Endogenous protein from lysates of the rat mast cell line RBL-2H3; also called ABCF1; ABCF1 protein
T6 sequence (Q6MG08 whole entry): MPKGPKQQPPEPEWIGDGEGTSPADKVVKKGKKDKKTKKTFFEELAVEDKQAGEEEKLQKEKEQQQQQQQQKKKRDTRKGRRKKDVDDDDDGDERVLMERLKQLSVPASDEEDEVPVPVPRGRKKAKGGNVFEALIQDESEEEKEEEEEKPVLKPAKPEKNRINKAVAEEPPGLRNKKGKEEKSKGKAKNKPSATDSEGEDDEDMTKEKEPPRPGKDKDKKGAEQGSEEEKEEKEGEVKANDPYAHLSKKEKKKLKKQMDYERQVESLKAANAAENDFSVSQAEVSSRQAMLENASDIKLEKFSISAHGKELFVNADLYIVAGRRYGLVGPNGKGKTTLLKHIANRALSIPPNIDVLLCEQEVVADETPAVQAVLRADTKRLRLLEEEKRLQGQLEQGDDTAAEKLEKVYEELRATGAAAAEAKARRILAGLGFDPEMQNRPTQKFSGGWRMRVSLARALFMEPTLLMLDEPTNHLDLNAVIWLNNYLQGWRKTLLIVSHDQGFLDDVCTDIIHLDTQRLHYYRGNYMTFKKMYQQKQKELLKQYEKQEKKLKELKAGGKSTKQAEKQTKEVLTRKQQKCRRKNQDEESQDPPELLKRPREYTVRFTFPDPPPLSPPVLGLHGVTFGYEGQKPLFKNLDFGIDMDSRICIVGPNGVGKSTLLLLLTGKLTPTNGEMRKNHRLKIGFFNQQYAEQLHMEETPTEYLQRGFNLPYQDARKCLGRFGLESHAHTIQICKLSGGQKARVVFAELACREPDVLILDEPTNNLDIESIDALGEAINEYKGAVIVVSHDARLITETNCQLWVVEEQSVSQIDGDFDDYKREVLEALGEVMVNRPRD
Method: as §1, §2, §3

[5] = target: T7, guanine nucleotide binding protein-like 2 (rat); test: as above
T7 construct: Endogenous protein from RBL-2H3 (rat) lysate
Method: as §1, §2, §3

[6] = target: T8, lysine (K)-specific demethylase 1 (rat); test: as above
T8 construct: Endogenous protein from RBL-2H3 (rat) lysate
Method: as §1, §2, §3

[7] = target: T9, PREDICTED: similar to myosin IG (rat); test: IP of RBL-2H3 lysate on nickel beads, MS/MS ProtScore; 1st value
T9 construct: Endogenous protein from RBL-2H3 (rat) lysate
Method: as §1, §2, §3

[8] = target: T10, adaptor-related protein complex 2, alpha 1 subunit (rat); test: as above
T10 construct: Endogenous protein from RBL-2H3 (rat) lysate
Method: as §1, §2, §3

[9] = target: T11, kinesin family member 20A (rat); test: as above
T11 construct: Endogenous protein from RBL-2H3 (rat) lysate
Method: as §1, §2, §3

vesicle docking protein [10] = target: T12, vesicle docking protein (rat); test: as above
T12 construct: Endogenous protein from RBL-2H3 (rat) lysate; a separate GenBank entry from gi 9507177
T12 sequence (P41542 whole entry): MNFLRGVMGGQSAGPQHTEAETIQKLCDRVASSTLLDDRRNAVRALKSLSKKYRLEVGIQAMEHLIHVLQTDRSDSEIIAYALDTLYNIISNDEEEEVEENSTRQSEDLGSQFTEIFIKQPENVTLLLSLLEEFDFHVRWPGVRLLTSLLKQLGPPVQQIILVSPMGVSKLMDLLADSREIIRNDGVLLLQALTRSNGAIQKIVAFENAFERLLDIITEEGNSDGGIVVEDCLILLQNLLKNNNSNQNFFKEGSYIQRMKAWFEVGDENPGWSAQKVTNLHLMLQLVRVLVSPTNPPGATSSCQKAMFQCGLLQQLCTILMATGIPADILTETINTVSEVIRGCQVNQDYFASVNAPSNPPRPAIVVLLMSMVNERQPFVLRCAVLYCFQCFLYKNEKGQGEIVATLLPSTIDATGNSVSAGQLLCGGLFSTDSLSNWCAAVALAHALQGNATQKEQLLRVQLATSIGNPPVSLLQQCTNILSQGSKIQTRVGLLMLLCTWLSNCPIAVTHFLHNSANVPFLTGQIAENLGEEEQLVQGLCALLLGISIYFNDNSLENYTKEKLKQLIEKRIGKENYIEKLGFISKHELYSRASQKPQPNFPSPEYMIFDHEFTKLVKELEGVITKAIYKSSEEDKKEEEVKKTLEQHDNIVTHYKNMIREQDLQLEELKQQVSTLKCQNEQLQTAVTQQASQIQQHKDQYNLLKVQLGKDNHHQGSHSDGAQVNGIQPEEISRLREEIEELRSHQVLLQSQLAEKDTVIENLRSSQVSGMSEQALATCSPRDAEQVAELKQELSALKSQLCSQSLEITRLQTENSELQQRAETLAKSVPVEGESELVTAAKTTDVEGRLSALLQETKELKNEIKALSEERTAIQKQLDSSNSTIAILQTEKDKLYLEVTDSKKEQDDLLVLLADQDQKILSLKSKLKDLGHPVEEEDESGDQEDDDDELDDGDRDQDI
Method: as §1, §2, §3

[11] = target: T9, PREDICTED: similar to myosin IG; test: IP of RBL-2H3 lysate on nickel beads, MS/MS ProtScore; 2nd value
Method: as §1, §2, §3

[12] = target: T10, adaptor-related protein complex 2, …; test: as above
Method: as §1, §2, §3

[13] = target: T11, kinesin family member 20A; test: as above
Method: as §1, §2, §3

vesicle docking protein [14] = target: T12, vesicle docking protein; test: as above
Method: as §1, §2, §3

B1: scFv 3H2-1 (scFv)
scFv: MAEVQLVESGGSLVKPGGSLRLSCAASGFTFSNYSMNWVRQAPGKGLEWISSISGSSRYIYYADFVKGRFTISRDNATNSLYLQMNSLRAEDTAVYYCVRPIAVSDYWGRGTLVTVSSGGGGSGGGGSGGGGSQSVLTQPASVSGSPGQSITISCAGTSSDVGGYNYVSWYQQHPGKAPKLMIYEDSKRPSGVSNRFSGSKSGNTASLTISGLQAEDEADYYCQTYDGSRAVFGGGTKLAVLGAAAEQKLISEEDLNGAA
notes: also called intracellular antibody 3H2-1; intrabody 3H2-1; not shown: C-terminal Myc tag and 6xHis tag from vector pET23NN
Protscore IP (rCG30986, isoform CRA_a): 10 | Protscore IP (CTP synthase): 7 | Protscore IP [1]: 4 | Protscore IP [2]: 4 | Protscore IP [3]: 4 | Protscore IP [4]: 51 | Protscore IP [5]: 10 | Protscore IP [6]: 10

B2: 5H4-VH (other)
VH: MAEVQLVESGGSLVKPGGSLRLSCAASGFTFSNYSMNWVRQAPGKGLEWISSISGSSRYIYYADFVKGRFTISRDNATNSLYLQMNSLRAEDTAVYYCVRDGGLREGFDCWGRGTLVTVSSAAAEQKLISEEDLNGAA
notes: Single human-derived VH domain (truncated scFv, VH only) on the 13R4 framework; produced in E. coli, immobilised on nickel beads; also called 5H4-VH fragment; intracellular antibody 5H4-VH; not shown: C-terminal Myc tag and 6xHis tag from vector pET23NN
Protscore IP [7]: 8 | Protscore IP [8]: 15 | Protscore IP [9]: 8 | Protscore IP (vesicle docking protein [10]): 8 | Protscore IP [11]: 20 | Protscore IP [12]: 6 | Protscore IP [13]: 10 | Protscore IP (vesicle docking protein [14]): 5
